The text below walks through data of US20140087995A1 (published 2014).

Numbered stars: 1 amine (or outer) side, 2 acyl side, 3 side chain; on linkers, the order of the positions; unused ones are H or OH. Bridge positions count the residues as written; N and C are the ends. * marks the point of attachment. C20 diacid = O=C(O)CCCCCCCCCCCCCCCCCCC(=O)*; γGlu = O=C(O)[C@H](CCC(=O)[*:2])N[*:1]

The target in assay [1] is T1, human calcitonin receptor (human, UniProt P30988 25-474).
T1 construct: whole, on cells; also called hCTR; hCT
T1 sequence (looked up): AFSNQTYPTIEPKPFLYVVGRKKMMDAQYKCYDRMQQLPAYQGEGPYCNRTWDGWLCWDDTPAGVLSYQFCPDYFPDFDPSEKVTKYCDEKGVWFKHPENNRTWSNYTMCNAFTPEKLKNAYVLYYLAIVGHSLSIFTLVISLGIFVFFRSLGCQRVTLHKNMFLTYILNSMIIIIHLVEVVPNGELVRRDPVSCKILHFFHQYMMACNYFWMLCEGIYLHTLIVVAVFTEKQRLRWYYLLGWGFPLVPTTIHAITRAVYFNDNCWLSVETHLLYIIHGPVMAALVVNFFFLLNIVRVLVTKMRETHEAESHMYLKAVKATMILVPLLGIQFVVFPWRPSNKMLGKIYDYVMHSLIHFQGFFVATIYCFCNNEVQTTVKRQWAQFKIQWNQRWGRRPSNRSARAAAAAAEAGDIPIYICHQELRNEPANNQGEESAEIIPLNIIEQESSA
As to the kind of experiment: SPA competition binding, membranes with human calcitonin receptor, displacement of 125I-calcitonin (Assay VII). How it is done: Membranes were prepared in the following way; the cells were rinsed with PBS and incubated with Versene for approximately 5 min before harvesting. The cells were flushed with PBS and the cell-suspension was centrifuged for 5 min at 1000 rpm. Cells were homogenized (Ultrathurrax) in a buffer containing 20 mM Na-HEPES and 10 mM EDTA (pH 7.4) and centrifuged at 20.000 rpm for 15 min. The resulting pellet was resuspended, homogenized and centrifuged (20.000 rpm, 15 min) in a buffer containing 20 mM Na-HEPES and 0.1 mM EDTA (pH 7.4, buffer 2). The resulting pellet was resuspended in buffer 2 and protein concentration was measured (BCA protein Assay, Pierce). The homogenate was kept cold during the whole procedure. The membranes were kept at −80° C. until use. Assay was performed in a 384 well Optiplate (PerkinElmer) in a total volume of 40 ul. Membranes were mixed with SPA beads. Final concentration of membranes 35 ng/μL final and Final concentration of SPA beads was 0.05 mg/well. Test-compounds were dissolved in DMSO and further diluted in assay buffer (50 mM Hepes, pH 7.4, 1 mM CaCl2, 5 mM MgCl₂, 0.1% OA and 0.02% Tween20). […] The final mixture was incubated for 120 min with shaking at 400 rpm at 25° C. prior to centrifugation (1500 rpm, 10 min). Samples were analyzed on TopCounter™ (Packard). The […] was calculated using (one site binding competition analysis) GraphPad Prism5 as a measure of receptor affinity.

Assay [2] deals with T1, human calcitonin receptor. As to the kind of experiment: ratio of IC50 at hCTR to IC50 at the human amylin receptor (reference). How it is done:
The resulting pellet was resuspended, homogenized and centrifuged (20.000 rpm, 15 min) in a buffer containing 20 mM Na-HEPES and 0.1 mM EDTA (pH 7.4, buffer 2). The resulting pellet was resuspended in buffer 2 and protein concentration was measured (BCA protein Assay, Pierce). The homogenate was kept cold during the whole procedure. The membranes were kept at −80° C. until use. The assay was performed in a 384 well Optiplate (PerkinElmer) in a total volume of 40 ul. Membranes were mixed with SPA beads. Final concentration of membranes 35 ng/μL final and SPA beads was 0.05 mg/well. Test-compounds were dissolved in DMSO and further diluted in assay buffer (50 mM Hepes, pH 7.4, 1 mM CaCl2, 5 mM MgCl₂, 0.1% OA and 0.02% Tween20). […] The final mixture was incubated with shaking at 400 rpm for 120 min at 25° C. prior to centrifugation (1500 rpm, 10 min). Samples were analyzed on TopCounter™ (Packard). The IC₅₀ was calculated using (one site binding competition analysis) GraphPad Prism5 as a measure of receptor affinity.
Membranes were prepared in the following way; the cells were rinsed with PBS and incubated with Versene for approximately 5 min before harvesting. The cells were flushed with PBS and the cell-suspension was centrifuged for 5 min at 1000 rpm. Cells were homogenized (Ultrathurrax) in a buffer containing 20 mM Na-HEPES and 10 mM EDTA (pH 7.4) and centrifuged at 20.000 rpm for 15 min. The resulting pellet was resuspended, homogenized and centrifuged (20.000 rpm, 15 min) in a buffer containing 20 mM Na-HEPES and 0.1 mM EDTA (pH 7.4, buffer 2). The resulting pellet was resuspended in buffer 2 and protein concentration was measured (BCA protein Assay, Pierce). The homogenate was kept cold during the whole procedure. The membranes were kept at −80° C. until use. Assay was performed in a 384 well Optiplate (PerkinElmer) in a total volume of 40 ul. Membranes were mixed with SPA beads.

B1: N^α1-[(4S)-4-carboxy-4-(19-carboxynonadecanoylamino)butanoyl]-[Glu14,Arg17,Pro21,Pro25,Pro28,Pro29]-h-amylin (peptide)
peptide: {C20 diacid-γGlu}-KCNTATCATQRLAEFLRHSSPNFGPILPPTNVGSNTY-NH2
modifications: disulfide 2-7
SMILES: CC[C@H](C)[C@H](NC(=O)[C@@H]1CCCN1C(=O)CNC(=O)[C@H](Cc1ccccc1)NC(=O)[C@H](CC(N)=O)NC(=O)[C@@H]1CCCN1C(=O)[C@H](CO)NC(=O)[C@H](CO)NC(=O)[C@H](Cc1c[nH]cn1)NC(=O)[C@H](CCCNC(=N)N)NC(=O)[C@H](CC(C)C)NC(=O)[C@H](Cc1ccccc1)NC(=O)[C@H](CCC(=O)O)NC(=O)[C@H](C)NC(=O)[C@H](CC(C)C)NC(=O)[C@H](CCCNC(=N)N)NC(=O)[C@H](CCC(N)=O)NC(=O)[C@@H](NC(=O)[C@H](C)NC(=O)[C@@H]1CSSC[C@H](NC(=O)[C@H](CCCCN)NC(=O)CC[C@H](NC(=O)CCCCCCCCCCCCCCCCCCC(=O)O)C(=O)O)C(=O)N[C@@H](CC(N)=O)C(=O)N[C@@H]([C@@H](C)O)C(=O)N[C@@H](C)C(=O)N[C@@H]([C@@H](C)O)C(=O)N1)[C@@H](C)O)C(=O)N[C@@H](CC(C)C)C(=O)N1CCC[C@H]1C(=O)N1CCC[C@H]1C(=O)N[C@H](C(=O)N[C@@H](CC(N)=O)C(=O)N[C@H](C(=O)NCC(=O)N[C@@H](CO)C(=O)N[C@@H](CC(N)=O)C(=O)N[C@H](C(=O)N[C@@H](Cc1ccc(O)cc1)C(N)=O)[C@@H](C)O)C(C)C)[C@@H](C)O
notes: also called compound 6
Usually IC50 stands for the concentration that inhibits the measured activity by half. On to B1, for which the IC50 in assay [1] was 19.9 nM. Besides, the “Ratio hCT/hAmylin binding” value in assay [2] turned out to be 20.

B2: N^α1-[(4S)-4-carboxy-4-(19-carboxynonadecanoylamino)butanoyl]-[Glu14,Arg17,Pro21,Pro26,Pro37]-h-amylin (peptide)
peptide: {C20 diacid-γGlu}-KCNTATCATQRLAEFLRHSSPNFGAPLSSTNVGSNTP-NH2
modifications: disulfide 2-7
SMILES: CC(C)C[C@H](NC(=O)[C@H](CCCNC(=N)N)NC(=O)[C@H](CCC(N)=O)NC(=O)[C@@H](NC(=O)[C@H](C)NC(=O)[C@@H]1CSSC[C@H](NC(=O)[C@H](CCCCN)NC(=O)CC[C@H](NC(=O)CCCCCCCCCCCCCCCCCCC(=O)O)C(=O)O)C(=O)N[C@@H](CC(N)=O)C(=O)N[C@@H]([C@@H](C)O)C(=O)N[C@@H](C)C(=O)N[C@@H]([C@@H](C)O)C(=O)N1)[C@@H](C)O)C(=O)N[C@@H](C)C(=O)N[C@@H](CCC(=O)O)C(=O)N[C@@H](Cc1ccccc1)C(=O)N[C@@H](CC(C)C)C(=O)N[C@@H](CCCNC(=N)N)C(=O)N[C@@H](Cc1c[nH]cn1)C(=O)N[C@@H](CO)C(=O)N[C@@H](CO)C(=O)N1CCC[C@H]1C(=O)N[C@@H](CC(N)=O)C(=O)N[C@@H](Cc1ccccc1)C(=O)NCC(=O)N[C@@H](C)C(=O)N1CCC[C@H]1C(=O)N[C@@H](CC(C)C)C(=O)N[C@@H](CO)C(=O)N[C@@H](CO)C(=O)N[C@H](C(=O)N[C@@H](CC(N)=O)C(=O)N[C@H](C(=O)NCC(=O)N[C@@H](CO)C(=O)N[C@@H](CC(N)=O)C(=O)N[C@H](C(=O)N1CCC[C@H]1C(N)=O)[C@@H](C)O)C(C)C)[C@@H](C)O
notes: also called compound 5
Consider B2, for which the IC50 in assay [1] is 0.537 nM. Moreover, in assay [2], the “Ratio hCT/hAmylin binding” value came to 1.4.
